Measurements published in article PMC548335 (Nucleic Acids Research, 2005).

What was measured:
GST-Pta1 = target: T1, GST-Pta1 (yeast, UniProt Q01329 1-785); test: pull-down
T1 sequence: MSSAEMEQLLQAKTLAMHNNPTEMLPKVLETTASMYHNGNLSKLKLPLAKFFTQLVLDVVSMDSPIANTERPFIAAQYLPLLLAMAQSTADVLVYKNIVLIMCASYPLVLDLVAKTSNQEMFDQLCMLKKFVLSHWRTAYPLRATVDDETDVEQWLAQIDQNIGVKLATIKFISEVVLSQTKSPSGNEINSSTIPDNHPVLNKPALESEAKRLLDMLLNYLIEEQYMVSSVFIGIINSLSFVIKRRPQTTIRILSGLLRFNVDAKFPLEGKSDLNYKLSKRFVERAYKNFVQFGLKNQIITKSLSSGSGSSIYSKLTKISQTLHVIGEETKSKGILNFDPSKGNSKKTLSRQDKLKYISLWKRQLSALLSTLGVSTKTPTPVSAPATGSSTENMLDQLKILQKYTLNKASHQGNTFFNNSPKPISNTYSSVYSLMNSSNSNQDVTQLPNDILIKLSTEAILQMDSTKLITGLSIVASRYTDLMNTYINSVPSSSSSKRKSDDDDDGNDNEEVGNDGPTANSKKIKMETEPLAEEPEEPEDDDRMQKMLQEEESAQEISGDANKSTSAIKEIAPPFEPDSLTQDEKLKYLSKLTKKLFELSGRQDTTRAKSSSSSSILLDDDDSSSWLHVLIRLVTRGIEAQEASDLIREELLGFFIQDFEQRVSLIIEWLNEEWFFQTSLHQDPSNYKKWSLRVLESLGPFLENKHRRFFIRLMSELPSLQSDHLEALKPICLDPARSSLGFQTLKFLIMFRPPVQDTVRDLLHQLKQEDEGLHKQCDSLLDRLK

GST-hTFIIB = target: T2, GST-hTFIIB (human, UniProt Q00403 1-316); test: pull-down
T2 sequence: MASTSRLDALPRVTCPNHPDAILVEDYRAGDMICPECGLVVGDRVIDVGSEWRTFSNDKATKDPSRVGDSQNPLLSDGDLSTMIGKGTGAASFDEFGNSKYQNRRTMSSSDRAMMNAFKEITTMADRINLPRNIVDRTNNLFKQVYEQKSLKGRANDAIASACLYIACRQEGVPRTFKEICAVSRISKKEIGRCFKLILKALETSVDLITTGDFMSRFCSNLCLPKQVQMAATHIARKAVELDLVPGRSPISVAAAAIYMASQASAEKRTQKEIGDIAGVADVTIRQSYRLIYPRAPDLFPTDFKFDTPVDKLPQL

| Binder | binding result (GST-Pta1) | binding result (GST-hTFIIB) |
| --- | --- | --- |
| Hat-hSsu72 (natural protein) MPSSPLRVAVVCSSNQNRSMEAHNILSKRGFSVRSFGTGTHVKLPGPAPDKPNVYDFKTTYDQMYNDLLRKDKELYTQNGILHMLDRNKRIKPRPERFQNCKDLFDLILTCEERVYDQVVEDLNSREQETCQPVHVVNVDIQDNHEEATLGAFLICELCQCIQHTEDMENEIDELLQEFEEKSGRTFLHTVCFY | binds | binds |
| Hat-hSsu72Δ1-12 (domain or fragment) SSNQNRSMEAHNILSKRGFSVRSFGTGTHVKLPGPAPDKPNVYDFKTTYDQMYNDLLRKDKELYTQNGILHMLDRNKRIKPRPERFQNCKDLFDLILTCEERVYDQVVEDLNSREQETCQPVHVVNVDIQDNHEEATLGAFLICELCQCIQHTEDMENEIDELLQEFEEKSGRTFLHTVCFY | binds | binds |
